The supplement of paper PMC9170038

System: MS2 coat protein
Test: apparent KD of MS2 coat protein; higher = weaker reporter binding
Conditions: Eterna round: R107
In short: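 Designed RNA switches were made by on-chip transcription from Illumina sequencing clusters and then titrated with SNAP-549-labelled MS2 coat protein. Twofold steps ran from 0.7 or 1.5 nM to 3 µM, each lasting 0.8–1.5 h early and 10–20 min late, in 100 mM Tris-HCl pH 7.5, 80 mM KCl, 4 mM MgCl2, without or with constant ligand. Apparent KD is the per-design median of normalised cluster binding-curve fits.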

[1] = input ligand: theophylline 20 uM
[2] = input ligand: theophylline 2 mM
[3] = input ligand: tryptophan 2.4 mM

## UGUGCAGGAUGUGUAAAAGGUCUUGGGCAUCGAGGACCGGUACGGCCGCCACUCGGCUGUACAUGAGGAUCACCCAUGUCAGGGU [#1 Same State - Tryptophan A Attempt #21 (HarryS)]
Input ligand: arginine 13.2 mM
  apparent KD of MS2 coat protein: 30.5 nM
Input ligand: none
  apparent KD of MS2 coat protein: 220 nM
[1]
  apparent KD of MS2 coat protein: 554 nM
[2]
  apparent KD of MS2 coat protein: 694 nM
[3]
  apparent KD of MS2 coat protein: 737 nM

## UGUGUCGUCUGAAGGAGCGGCUCUUGAUCCUCGUGGGACAUGAGGAUCACCCAUGUCUCGAGCCAGGUAGGUCGCAGGCGGCACA [#27 Exclusion - Arginine B]
Input ligand: arginine 13.2 mM
  apparent KD of MS2 coat protein: 31.3 nM
Input ligand: none
  apparent KD of MS2 coat protein: 26 nM
[1]
  apparent KD of MS2 coat protein: 32.6 nM
[2]
  apparent KD of MS2 coat protein: 23.8 nM
[3]
  apparent KD of MS2 coat protein: 20.7 nM

## UUAUAAGUACCGGUCCUCAGAUCCUCAUGACGAGGACCGGUACGGCCGCCACUCGAAACAUGAGGAUCACCCAUGUAAUAAUAAU [Brourdmod05]
Input ligand: arginine 13.2 mM
  apparent KD of MS2 coat protein: 18.8 nM
[1]
  apparent KD of MS2 coat protein: 29.3 nM
[2]
  apparent KD of MS2 coat protein: 27.7 nM

## UUAUAAGUACCGGUCCUCAGAUCCUCAUGACGAGGACCGGUACGGCCGCCACUCGAAACAUGAGGAUCACCCAUGUAAUAAUACC [Brourdmod12]
Input ligand: arginine 13.2 mM
  apparent KD of MS2 coat protein: 36.6 nM
[1]
  apparent KD of MS2 coat protein: 71.5 nM
[2]
  apparent KD of MS2 coat protein: 54.2 nM

## UUAUAUACUACGGCCGCCACUGAACAUGAGGAUCACCCAUGUAAUGUUCAGACGUCUUUAGACGACAGGACCGGGUAGAAUUAAA [Tryptophan B 1]
Input ligand: arginine 13.2 mM
  apparent KD of MS2 coat protein: 79.5 nM
[1]
  apparent KD of MS2 coat protein: 114 nM
[2]
  apparent KD of MS2 coat protein: 122 nM

## UUCAAAGGGAACGGUGCUGGUAGCAGAGAUACCAGAGUAAUGAUACUCCCUUGGCAGCUCAGUACAUGAGGAUCACCCAUGUAAU [Exclusion Theophylline A GF24]
Input ligand: arginine 13.2 mM
  apparent KD of MS2 coat protein: 13.8 nM
Input ligand: none
  apparent KD of MS2 coat protein: 13.5 nM
[1]
  apparent KD of MS2 coat protein: 20.2 nM
[2]
  apparent KD of MS2 coat protein: 15.9 nM
[3]
  apparent KD of MS2 coat protein: 15.1 nM

## UUCACAUGAUCUGAAUAUACAGAAAAGAAACGAGGACCGGUACGGCCGCCACUCGUGCCGGAAACAUGAGGAUCACCCAUGUGUU [AK1.3 Exclusion TrypA mod IceBolt]
Input ligand: arginine 13.2 mM
  apparent KD of MS2 coat protein: 19.7 nM
[1]
  apparent KD of MS2 coat protein: 28.5 nM
[2]
  apparent KD of MS2 coat protein: 26.2 nM

## UUCACAUGGUAUGAAUAUACAUAUAAGAAACGAGGACCGGUACGGCCGCCACUCGUGCCGGAAACAUGAGGAUCACCCAUGUGUU [AK1.1 Exclusion TrypA mod IceBolt]
Input ligand: arginine 13.2 mM
  apparent KD of MS2 coat protein: 27 nM
[1]
  apparent KD of MS2 coat protein: 55.9 nM
[2]
  apparent KD of MS2 coat protein: 64.8 nM

## UUCGUAUUGUCGGCCGCCACUGCAACAUGAGGAUCACCCAUGUAAAUUUGGGAGUAGUUAUAUUACAGGACCGGGACAAUAGUAA [JR_ExcTryptoB_Sub019]
Input ligand: arginine 13.2 mM
  apparent KD of MS2 coat protein: 51.8 nM
[1]
  apparent KD of MS2 coat protein: 113 nM
[2]
  apparent KD of MS2 coat protein: 140 nM

## UUCGUUUGCGGAAGGAGCGACGGACAUCGGUGAACAACGCACAUGAGGAUCACCCAUGUACGUCAGGUAGGUCGCCGCUAAGAGU [XArg-B3]
Input ligand: arginine 13.2 mM
  apparent KD of MS2 coat protein: 29.3 nM
Input ligand: none
  apparent KD of MS2 coat protein: 105 nM
[1]
  apparent KD of MS2 coat protein: 134 nM
[2]
  apparent KD of MS2 coat protein: 375 nM
[3]
  apparent KD of MS2 coat protein: 73.6 nM

## UUGCAGAUCGGAAAGGUCCUGCUGUUCGAAGGAGCGGUAAAAGUACCAGGUAGGUCGCGAACAUGAGGAUCACCCAUGUUUGCAA [Usmaenbi]
Input ligand: arginine 13.2 mM
  apparent KD of MS2 coat protein: 11.3 nM
Input ligand: none
  apparent KD of MS2 coat protein: 22.3 nM
[1]
  apparent KD of MS2 coat protein: 28.2 nM
[2]
  apparent KD of MS2 coat protein: 20.2 nM
[3]
  apparent KD of MS2 coat protein: 21.1 nM

## UUGGGUUUGUGAAGGAGCGGGAAAGAUAUAUAUUUAAUCCUAACAUGAGGAUCACCCAUGUCCCAGGUAGGUCGCGCGGGUUUGG [12.O]
Input ligand: arginine 13.2 mM
  apparent KD of MS2 coat protein: 33.9 nM
Input ligand: none
  apparent KD of MS2 coat protein: 47.1 nM
[1]
  apparent KD of MS2 coat protein: 46.4 nM
[2]
  apparent KD of MS2 coat protein: 64.3 nM
[3]
  apparent KD of MS2 coat protein: 46.9 nM

## UUGUUGUUUGGAAGGAGCGUGUAUGAGUUAGAACAUGAGGAUCACCCAUGUUGGAUGAUAGCACAGGUAGGUCGCCGGGUGGUGG [11.Y]
Input ligand: arginine 13.2 mM
  apparent KD of MS2 coat protein: 8.43 nM
Input ligand: none
  apparent KD of MS2 coat protein: 24.1 nM
[1]
  apparent KD of MS2 coat protein: 18.4 nM
[2]
  apparent KD of MS2 coat protein: 66.8 nM
[3]
  apparent KD of MS2 coat protein: 11 nM

## UUUACAUGAGGAUCACCCAUGUGCCAUGAUACCAGACAUGAAAAUGUCCCUUGGCAGCAUGAGUGAUAUGCGUCGGAAACGACGC [Jundrov]
Input ligand: arginine 13.2 mM
  apparent KD of MS2 coat protein: 499 nM
Input ligand: none
  apparent KD of MS2 coat protein: 153 nM
[1]
  apparent KD of MS2 coat protein: 102 nM
[2]
  apparent KD of MS2 coat protein: 1210 nM
[3]
  apparent KD of MS2 coat protein: 194 nM

## UUUACGGGAAACCGAACUAAACAAAGGGAAGGAGCGCCAAACAAGGCAGGUAGGUCGCCCACAUGAGGAUCACCCAUGUGUUGGG [Exclusion Arginine A GF 25]
Input ligand: arginine 13.2 mM
  apparent KD of MS2 coat protein: 32.6 nM
Input ligand: none
  apparent KD of MS2 coat protein: 60.3 nM
[1]
  apparent KD of MS2 coat protein: 67.9 nM
[2]
  apparent KD of MS2 coat protein: 64 nM
[3]
  apparent KD of MS2 coat protein: 53.2 nM

## UUUUUCGUAGGUUAAAGUUUAGAAACUGAAGGAGCGUGGUAAUACACAGGUAGGUCGCAGAUUUUACAUGAGGAUCACCCAUGUU [JR_ExcArginiA_Sub012]
Input ligand: arginine 13.2 mM
  apparent KD of MS2 coat protein: 26.9 nM
Input ligand: none
  apparent KD of MS2 coat protein: 24.5 nM
[1]
  apparent KD of MS2 coat protein: 20.7 nM
[2]
  apparent KD of MS2 coat protein: 26.2 nM
[3]
  apparent KD of MS2 coat protein: 21.1 nM

## UUUUUUAUUGGGUAUAGAAUAUUAACUGAAGGAGCGUGGUAUUACACAGGUAGGUCGCAGUUUUUACAUGAGGAUCACCCAUGUU [JR_SSArginiA_Sub010]
Input ligand: arginine 13.2 mM
  apparent KD of MS2 coat protein: 36.1 nM
Input ligand: none
  apparent KD of MS2 coat protein: 38.5 nM
[1]
  apparent KD of MS2 coat protein: 51.5 nM
[2]
  apparent KD of MS2 coat protein: 60.1 nM
[3]
  apparent KD of MS2 coat protein: 39 nM
